Source: US20210087231A1 (UNIVERSITY OF MARYLAND BALTIMORE, published 2021)
No end group written: not given here. Cy3 = Cy3 fluorescent dye label

Key:
MyD88-Cer = target: T1, MyD88-Cer (UniProt Q99836 155-296); experiment: FRET-FLIM in HeLa cells expressing the Cer fusion, Cy3-peptide 1 h
T1 construct: The vector is 'described previously'; Expressed in HeLa cells; also called MyD88 TIR-Cer; Cer-labeled MyD88 TIR; not shown: Cerulean fluorescent protein (Cer)
Procedure: (§1) To identify potential binding partners of inhibitory peptides a FRET approach coupled with Fluorescence Lifetime Imaging Microscopy (FLIM) was used. HeLa cells were transiently transfected with an expression vector that encodes a TIR domain fused with Cerulean fluorescent protein (Cer). Cells were treated with various concentrations of a Cy3-labeled inhibitory peptide 48 hours after transfection. Cy3 is a suitable FRET acceptor for Cer fluorescence. A direct molecular interaction of a Cy3-labeled peptide with Cer-fused TIR domain should quench Cer fluorescence, leading to a decreased fluorescence lifetime.
(§2) A progressive shift of average fluorescence lifetime towards lower values observed with increasing peptide concentrations indicates the binding between donor and acceptor moieties. […] FRET efficiencies presented in FIG. 13 were calculated from the average lifetimes corresponding to entire images that contained multiple cells as in images shown in FIG. 11, using data obtained in three independent experiments. […]
(§3) The strongest peptide-induced quenching was detected for the TLR9 TIR-Cer-expressing cells treated with Cy3-9R34-ΔN. This peptide quenched the TLR9 TIR-Cer fluorescence dose-dependently with FRET efficiency varying in the range of 9-23% (FIG. 13). […]

TRAM-Cer = target: T2, TRAM-Cer (UniProt Q86XR7 1-235); experiment: as above
T2 construct: Control construct expressed in HeLa cells; not shown: Cerulean fluorescent protein (Cer)
T2 sequence (Q86XR7 whole entry): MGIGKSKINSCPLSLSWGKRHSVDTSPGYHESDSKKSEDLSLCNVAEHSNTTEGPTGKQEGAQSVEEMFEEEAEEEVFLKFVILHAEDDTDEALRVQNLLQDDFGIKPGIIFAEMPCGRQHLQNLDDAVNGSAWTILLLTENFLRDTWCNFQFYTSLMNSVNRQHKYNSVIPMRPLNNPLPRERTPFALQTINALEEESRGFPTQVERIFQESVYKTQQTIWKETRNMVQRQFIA
Procedure: as §1, §2, §3

T1 sequence (Q99836 155-296): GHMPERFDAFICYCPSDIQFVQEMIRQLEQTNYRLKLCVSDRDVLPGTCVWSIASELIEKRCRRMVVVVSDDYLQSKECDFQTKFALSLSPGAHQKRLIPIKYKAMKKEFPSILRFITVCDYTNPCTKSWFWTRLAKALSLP

- binding result (MyD88-Cer): no binding (tested: 2.5 and 10 µM)
- binding result (TRAM-Cer): no binding (tested: 40 µM)
B1: Cy3-9R34-ΔN (peptide)
peptide: Cy3-RQIKIWFQNRRMKWKKALRLCLEERD
notes: Cy3-labeled cell-permeating decoy peptide (CPDP); also called 9R34-ΔNa; peptide from Surface 1 (S1) of TLR9
